Experimental data reported in patent US20220064329A1 (Novo Nordisk, published 2022).
Residue numbers refer to the chain shown, from its start. Numbers in names are those of the source.

T1: recombinant human activated Factor VII (FVIIa) (human, UniProt P08709 61-212; P08709 213-466, ten glutamate residues of the Gla domain may be gamma-carboxylated)
T1 construct: chains tethered by a disulfide bond; also called Factor VIIa; rFVIIa
T1 sequence 1: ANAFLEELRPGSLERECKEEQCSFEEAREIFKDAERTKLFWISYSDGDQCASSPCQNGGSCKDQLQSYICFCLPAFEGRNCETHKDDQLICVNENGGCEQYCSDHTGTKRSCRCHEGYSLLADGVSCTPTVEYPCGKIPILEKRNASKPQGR
T1 sequence 2: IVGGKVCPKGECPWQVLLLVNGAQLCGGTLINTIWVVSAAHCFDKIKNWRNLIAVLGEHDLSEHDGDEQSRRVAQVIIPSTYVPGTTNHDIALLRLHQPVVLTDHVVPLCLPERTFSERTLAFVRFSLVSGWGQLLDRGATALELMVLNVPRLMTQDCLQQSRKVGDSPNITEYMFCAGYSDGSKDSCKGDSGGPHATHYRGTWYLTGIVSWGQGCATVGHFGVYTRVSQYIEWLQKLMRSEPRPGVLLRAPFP

B1: VH SEQ ID NO 618 / VL SEQ ID NO 350 (antibody, IgG4, V domains shown)
VH: QVQLQESGPGLVKPSQTLSLTCTVSGYSISSDSAWSWIRQFPGKGLEWIGYIQYSGSTNYNPSLKSRVTISRDTSKNQFSLKLSSVTAADTAVYYCARSVNYYGNSFAVGPWGQGTLVTVSS
VL: EIVLTQSPATLSLSPGERATLSCRASQGISDYLHWYQQKPGQAPRLLIKYTSQPATGIPARFSGSGSGTDFTLTISSLEPEDFAVYYCQNGHSFPLTFGAGTKLELK
notes: humanized 11F2; IgG4 S228P/kappa
B2: VH SEQ ID NO 618 / VL SEQ ID NO 422 (antibody, IgG4, V domains shown)
VH: B1 VH
VL: B1 VL with I29V, H34A, T51A, N90Q, A100Q, L106I
notes: as for B1
B3: VH SEQ ID NO 626 / VL SEQ ID NO 422 (antibody, IgG4, V domains shown)
VH: B1 VH with F41P
VL: B1 VL with I29V, H34A, T51A, N90Q, A100Q, L106I
notes: as for B1
B4: VH SEQ ID NO 626 / VL SEQ ID NO 366 (antibody, IgG4, V domains shown)
VH: B1 VH with F41P
VL: B1 VL with I29L, H34A, Q42E, T51A, A100Q, L106I
notes: as for B1
B5: VH SEQ ID NO 618 / VL SEQ ID NO 430 (antibody, IgG4, V domains shown)
VH: B1 VH
VL: B1 VL with I29V, H34A, T51A, A84G, A100Q, L106I
notes: as for B1
B6: VH SEQ ID NO 626 / VL SEQ ID NO 390 (antibody, IgG4, V domains shown)
VH: B1 VH with F41P
VL: B1 VL with I29V, H34A, Q42E, T51A, A100Q, L106I
notes: as for B1
B7: VH SEQ ID NO 626 / VL SEQ ID NO 326 (antibody, IgG4, V domains shown)
VH: B1 VH with F41P
VL: B1 VL with Q42E, A84G
notes: as for B1
B8: VH SEQ ID NO 626 / VL SEQ ID NO 358 (antibody, IgG4, V domains shown)
VH: B1 VH with F41P
VL: B1 VL with A100Q, L106I
notes: as for B1
B9: VH SEQ ID NO 618 / VL SEQ ID NO 494 (antibody, IgG4, V domains shown)
VH: B1 VH
VL: B1 VL with I29V, T51A, F83V, A100Q, L106I
notes: as for B1
B10: VH SEQ ID NO 618 / VL SEQ ID NO 414 (antibody, IgG4, V domains shown)
VH: B1 VH
VL: B1 VL with I29V, H34A, T51A, A100Q, L106I
notes: as for B1
B11: VH SEQ ID NO 626 / VL SEQ ID NO 438 (antibody, IgG4, V domains shown)
VH: B1 VH with F41P
VL: B1 VL with I29V, H34A, T51A, F83V, A100Q, L106I
notes: as for B1
B12: VH SEQ ID NO 626 / VL SEQ ID NO 342 (antibody, IgG4, V domains shown)
VH: B1 VH with F41P
VL: B1 VL with T69R
notes: as for B1
B13: VH SEQ ID NO 618 / VL SEQ ID NO 390 (antibody, IgG4, V domains shown)
VH: B1 VH
VL: B1 VL with I29V, H34A, Q42E, T51A, A100Q, L106I
notes: as for B1
B14: VH SEQ ID NO 618 / VL SEQ ID NO 470 (antibody, IgG4, V domains shown)
VH: B1 VH
VL: B1 VL with I29V, T51A, A100Q, L106I
notes: as for B1
B15: VH SEQ ID NO 618 / VL SEQ ID NO 486 (antibody, IgG4, V domains shown)
VH: B1 VH
VL: B1 VL with I29V, T51A, A84G, A100Q, L106I
notes: as for B1
B16: VH SEQ ID NO 618 / VL SEQ ID NO 406 (antibody, IgG4, V domains shown)
VH: B1 VH
VL: B1 VL with I29V, H34A, T51A, L106I
notes: as for B1
B17: VH SEQ ID NO 626 / VL SEQ ID NO 414 (antibody, IgG4, V domains shown)
VH: B1 VH with F41P
VL: B1 VL with I29V, H34A, T51A, A100Q, L106I
notes: as for B1
B18: VH SEQ ID NO 626 / VL SEQ ID NO 382 (antibody, IgG4, V domains shown)
VH: B1 VH with F41P
VL: B1 VL with I29L, Q42E, T51A, A100Q, L106I
notes: as for B1
B19: VH SEQ ID NO 618 / VL SEQ ID NO 462 (antibody, IgG4, V domains shown)
VH: B1 VH
VL: B1 VL with I29V, T51A, L106I
notes: as for B1
B20: VH SEQ ID NO 618 / VL SEQ ID NO 446 (antibody, IgG4, V domains shown)
VH: B1 VH
VL: B1 VL with I29V, H34A, A100Q, L106I
notes: as for B1
B21: VH SEQ ID NO 618 / VL SEQ ID NO 358 (antibody, IgG4, V domains shown)
VH: B1 VH
VL: B1 VL with A100Q, L106I
notes: as for B1
B22: VH SEQ ID NO 618 / VL SEQ ID NO 454 (antibody, IgG4, V domains shown)
VH: B1 VH
VL: B1 VL with I29V, Q42E, T51A, A100Q, L106I
notes: as for B1
B23: VH SEQ ID NO 618 / VL SEQ ID NO 502 (antibody, IgG4, V domains shown)
VH: B1 VH
VL: B1 VL with I29V, A100Q, L106I
notes: as for B1
B24: VH SEQ ID NO 618 / VL SEQ ID NO 438 (antibody, IgG4, V domains shown)
VH: B1 VH
VL: B1 VL with I29V, H34A, T51A, F83V, A100Q, L106I
notes: as for B1
B25: VH SEQ ID NO 618 / VL SEQ ID NO 366 (antibody, IgG4, V domains shown)
VH: B1 VH
VL: B1 VL with I29L, H34A, Q42E, T51A, A100Q, L106I
notes: as for B1
B26: VH SEQ ID NO 626 / VL SEQ ID NO 406 (antibody, IgG4, V domains shown)
VH: B1 VH with F41P
VL: B1 VL with I29V, H34A, T51A, L106I
notes: as for B1
B27: VH SEQ ID NO 626 / VL SEQ ID NO 430 (antibody, IgG4, V domains shown)
VH: B1 VH with F41P
VL: B1 VL with I29V, H34A, T51A, A84G, A100Q, L106I
notes: as for B1
B28: VH SEQ ID NO 626 / VL SEQ ID NO 398 (antibody, IgG4, V domains shown)
VH: B1 VH with F41P
VL: B1 VL with I29V, H34A, Q42E, A100Q, L106I
notes: as for B1
B29: VH SEQ ID NO 626 / VL SEQ ID NO 310 (antibody, IgG4, V domains shown)
VH: B1 VH with F41P
VL: B1 VL with H34A, T51A, A100Q, L106I
notes: as for B1
B30: VH SEQ ID NO 618 / VL SEQ ID NO 478 (antibody, IgG4, V domains shown)
VH: B1 VH
VL: B1 VL with I29V, T51A, N90Q, A100Q, L106I
notes: as for B1
B31: VH SEQ ID NO 618 / VL SEQ ID NO 382 (antibody, IgG4, V domains shown)
VH: B1 VH
VL: B1 VL with I29L, Q42E, T51A, A100Q, L106I
notes: as for B1
B32: VH SEQ ID NO 626 / VL SEQ ID NO 334 (antibody, IgG4, V domains shown)
VH: B1 VH with F41P
VL: B1 VL with T51A, A100Q, L106I
notes: as for B1
B33: VH SEQ ID NO 618 / VL SEQ ID NO 398 (antibody, IgG4, V domains shown)
VH: B1 VH
VL: B1 VL with I29V, H34A, Q42E, A100Q, L106I
notes: as for B1
B34: VH SEQ ID NO 626 / VL SEQ ID NO 318 (antibody, IgG4, V domains shown)
VH: B1 VH with F41P
VL: B1 VL with Q42E, A100Q, L106I
notes: as for B1
B35: VH SEQ ID NO 626 / VL SEQ ID NO 350 (antibody, IgG4, V domains shown)
VH: B1 VH with F41P
VL: B1 VL
notes: as for B1

Each binder was assayed against T1, recombinant human activated Factor VII … (assay: BLI (Fortebio)).

Kd [nM]	Binder
1	B1
5800	B2
2400	B3
87	B4
110	B5
27	B6
0.79	B7
0.72	B8
1.4	B9
24	B10
77	B11
0.85	B12
33	B13
1.2	B14
1.2	B15
24	B16
18	B17
1.1	B18

Kd [nM]	Binder
1.4	B19
200	B20
0.95	B21
1.3	B22
1.2	B23
34	B24
21	B25
87	B26
53	B27
820	B28
9.2	B29
2	B30
1.1	B31
0.95	B32
180	B33
0.71	B34
0.65	B35
